Assay results as given in publication PMC3192265 (Molecular microbiology, 2011).

Target: T1, B. subtilis DnaA (no tag) (B. subtilis, UniProt P05648 1-446)
T1 sequence (looked up): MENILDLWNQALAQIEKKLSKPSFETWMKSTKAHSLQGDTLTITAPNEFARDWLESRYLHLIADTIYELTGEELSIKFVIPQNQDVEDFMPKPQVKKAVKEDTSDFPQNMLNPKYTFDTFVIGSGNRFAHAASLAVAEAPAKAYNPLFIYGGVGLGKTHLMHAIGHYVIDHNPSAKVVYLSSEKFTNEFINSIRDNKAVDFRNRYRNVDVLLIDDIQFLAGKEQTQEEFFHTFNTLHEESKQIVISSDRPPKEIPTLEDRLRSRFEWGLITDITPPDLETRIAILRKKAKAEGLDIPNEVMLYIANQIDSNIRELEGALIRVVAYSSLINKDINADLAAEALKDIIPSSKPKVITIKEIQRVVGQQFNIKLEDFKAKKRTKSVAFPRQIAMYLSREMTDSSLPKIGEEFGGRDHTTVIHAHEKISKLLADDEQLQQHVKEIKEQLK
Assay: native gel or EMSA

B1: his-YabA (recombinant YabA with a hexa-histidine tag at its N-terminus) (natural protein)
chain: not shown
B1: binds.
